In patent publication US12679878B2, “CRF2 receptor agonists and their use in therapy” (SANOFI, priority 2020, dated 2026):
Starred links: 1 amine or outer side, 2 acyl side, 3 side chain; linkers in the order of their positions; H or OH if unused. Non-standard residues stand in square brackets, D forms with d. Groups on a side chain read outwards from the residue. No end group written: not given here. *: point of attachment. C18 diacid = O=C(O)CCCCCCCCCCCCCCCCC(=O)*; γGlu = O=C(O)[C@H](CCC(=O)[*:2])N[*:1]; AEEA = NCCOCCOCC(=O)O; Aib = CC(C)(N)C(=O)O

T1: anti-target CRF1R receptor (UniProt P34998 24-415, limits assumed)
T1 sequence (looked up): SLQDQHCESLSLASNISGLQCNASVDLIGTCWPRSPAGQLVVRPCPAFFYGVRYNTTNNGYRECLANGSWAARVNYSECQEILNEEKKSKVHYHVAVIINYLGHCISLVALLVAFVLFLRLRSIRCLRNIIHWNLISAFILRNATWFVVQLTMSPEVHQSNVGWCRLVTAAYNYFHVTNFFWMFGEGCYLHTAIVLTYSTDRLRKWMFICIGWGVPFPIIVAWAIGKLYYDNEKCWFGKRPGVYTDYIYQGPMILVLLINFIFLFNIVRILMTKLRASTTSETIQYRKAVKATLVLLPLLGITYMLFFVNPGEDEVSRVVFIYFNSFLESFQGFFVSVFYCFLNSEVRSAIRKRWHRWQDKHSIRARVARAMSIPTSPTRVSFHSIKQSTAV

B1: peptide of SEQ ID NO: 164 (peptide)
peptide: Ac-IVLSLD[dV]PIGLK([AEEA-AEEA-γGlu-C18 diacid])QILLEQERQK[Aib]QREQAEKNKQILEQV-NH2
SMILES: CC[C@H](C)[C@H](NC(C)=O)C(=O)N[C@H](C(=O)N[C@@H](CC(C)C)C(=O)N[C@@H](CO)C(=O)N[C@@H](CC(C)C)C(=O)N[C@@H](CC(=O)O)C(=O)N[C@@H](C(=O)N1CCC[C@H]1C(=O)N[C@H](C(=O)NCC(=O)N[C@@H](CC(C)C)C(=O)N[C@@H](CCCCNC(=O)COCCOCCNC(=O)COCCOCCNC(=O)CC[C@H](NC(=O)CCCCCCCCCCCCCCCCC(=O)O)C(=O)O)C(=O)N[C@@H](CCC(N)=O)C(=O)N[C@H](C(=O)N[C@@H](CC(C)C)C(=O)N[C@@H](CC(C)C)C(=O)N[C@@H](CCC(=O)O)C(=O)N[C@@H](CCC(N)=O)C(=O)N[C@@H](CCC(=O)O)C(=O)N[C@@H](CCCNC(=N)N)C(=O)N[C@@H](CCC(N)=O)C(=O)N[C@@H](CCCCN)C(=O)NC(C)(C)C(=O)N[C@@H](CCC(N)=O)C(=O)N[C@@H](CCCNC(=N)N)C(=O)N[C@@H](CCC(=O)O)C(=O)N[C@@H](CCC(N)=O)C(=O)N[C@@H](C)C(=O)N[C@@H](CCC(=O)O)C(=O)N[C@@H](CCCCN)C(=O)N[C@@H](CC(N)=O)C(=O)N[C@@H](CCCCN)C(=O)N[C@@H](CCC(N)=O)C(=O)N[C@H](C(=O)N[C@@H](CC(C)C)C(=O)N[C@@H](CCC(=O)O)C(=O)N[C@@H](CCC(N)=O)C(=O)N[C@H](C(N)=O)C(C)C)[C@@H](C)CC)[C@@H](C)CC)[C@@H](C)CC)C(C)C)C(C)C
B2: peptide of SEQ ID NO: 146 (peptide)
peptide: FTLSLDVPIKLK([AEEA-AEEA-γGlu-C18 diacid])QILLKQERQKKQRQKAKKNKQILERV-NH2
modifications: N-terminus assumed
SMILES: CC[C@H](C)[C@H](NC(=O)[C@H](CCC(N)=O)NC(=O)[C@H](CCCCNC(=O)COCCOCCNC(=O)COCCOCCNC(=O)CC[C@H](NC(=O)CCCCCCCCCCCCCCCCC(=O)O)C(=O)O)NC(=O)[C@H](CC(C)C)NC(=O)[C@H](CCCCN)NC(=O)[C@@H](NC(=O)[C@@H]1CCCN1C(=O)[C@@H](NC(=O)[C@H](CC(=O)O)NC(=O)[C@H](CC(C)C)NC(=O)[C@H](CO)NC(=O)[C@H](CC(C)C)NC(=O)[C@@H](NC(=O)[C@@H](N)Cc1ccccc1)[C@@H](C)O)C(C)C)[C@@H](C)CC)C(=O)N[C@@H](CC(C)C)C(=O)N[C@@H](CC(C)C)C(=O)N[C@@H](CCCCN)C(=O)N[C@@H](CCC(N)=O)C(=O)N[C@@H](CCC(=O)O)C(=O)N[C@@H](CCCNC(=N)N)C(=O)N[C@@H](CCC(N)=O)C(=O)N[C@@H](CCCCN)C(=O)N[C@@H](CCCCN)C(=O)N[C@@H](CCC(N)=O)C(=O)N[C@@H](CCCNC(=N)N)C(=O)N[C@@H](CCC(N)=O)C(=O)N[C@@H](CCCCN)C(=O)N[C@@H](C)C(=O)N[C@@H](CCCCN)C(=O)N[C@@H](CCCCN)C(=O)N[C@@H](CC(N)=O)C(=O)N[C@@H](CCCCN)C(=O)N[C@@H](CCC(N)=O)C(=O)N[C@H](C(=O)N[C@@H](CC(C)C)C(=O)N[C@@H](CCC(=O)O)C(=O)N[C@@H](CCCNC(=N)N)C(=O)N[C@H](C(N)=O)C(C)C)[C@@H](C)CC

Columns and labels:
[1] = biological target: rat CRF2R α receptor (rat, UniProt P47866 20-411); experiment: cell-based or functional assay
Chain of rat CRF2R α receptor (P47866 20-411): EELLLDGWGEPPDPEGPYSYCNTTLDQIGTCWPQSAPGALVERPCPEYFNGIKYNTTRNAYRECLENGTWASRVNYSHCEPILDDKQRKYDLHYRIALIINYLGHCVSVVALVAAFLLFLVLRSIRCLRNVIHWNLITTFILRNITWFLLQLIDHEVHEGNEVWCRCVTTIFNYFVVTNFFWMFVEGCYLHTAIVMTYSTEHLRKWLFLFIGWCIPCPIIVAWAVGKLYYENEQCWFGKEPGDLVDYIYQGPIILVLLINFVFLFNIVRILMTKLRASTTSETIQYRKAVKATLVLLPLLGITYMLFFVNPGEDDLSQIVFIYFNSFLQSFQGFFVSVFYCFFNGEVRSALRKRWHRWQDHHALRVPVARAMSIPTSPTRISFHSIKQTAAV

[2] = biological target: T1, anti-target CRF1R receptor; experiment: cell-based or functional assay

| Binder | EC50 [nM], 0% HSA (cAMP, A7R5 cells) [1] [nM] | EC50[nM] 0% HSA (cAMP, CRF1R-overexpression CHO cells) [2] [nM] | Emax (%) (cAMP, CRF1R-overexpression CHO cells) [2] |
| --- | --- | --- | --- |
| B1 | 12.6 | > 1000 | 25.8 |
| B2 | 0.22 | > 1000 | 1.03 |
